Kd data for 1 substance are collected here from publication PMC3536884.

In the assay the target is C9-tagged CCR5 (human) (UniProt P51681). Put plainly: SPR.
Chain of UniProt P51681 (P51681 whole entry): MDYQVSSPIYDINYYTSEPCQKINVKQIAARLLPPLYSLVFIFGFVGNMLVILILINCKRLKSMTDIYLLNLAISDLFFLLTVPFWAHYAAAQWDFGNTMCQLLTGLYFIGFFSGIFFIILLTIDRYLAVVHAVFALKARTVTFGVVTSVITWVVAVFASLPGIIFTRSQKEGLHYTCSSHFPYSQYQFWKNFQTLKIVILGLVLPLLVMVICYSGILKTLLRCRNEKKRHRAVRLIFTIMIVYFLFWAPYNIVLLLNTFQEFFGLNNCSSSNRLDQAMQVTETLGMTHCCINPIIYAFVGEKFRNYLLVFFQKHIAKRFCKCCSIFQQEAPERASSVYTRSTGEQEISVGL

One may read the Kd as the constant that tells how readily two partners part at equilibrium. Low readings indicate a tighter complex, high ones a looser complex. “LukE (leukotoxin ED subunit E), His-tagged (natural protein)” had a Kd of 39.6 nM.
